These results are taken from patent publication US5935824.

For assay [1], the target named is MBP/IgG fusion protein encoded by pMA2-TH-IgG-9 (E. coli; human).
In assay [2] the target is control peptide Ala-Leu-Lys-Asp-Ala-Gln-Thr-Asn-Ser-Ser-Ser-Phe.
For assay [3], the target named is N-CBZ-Gly-Pro-Leu-Ala-Pro.
Assay [4] has as its target Lys-Lys peptide Pro-Leu-Ser-Arg-Leu-Ser-Val-Ala-Lys-Lys.

Take thrombin (Sigma) (enzyme): the cleavage of the fusion protein, time course on SDS-PAGE (% cleaved after 5 minutes) in assay [1] worked out at 75.
On to “carboxypeptidase Y (from UniProt P00729) (enzyme)”, for which the K^1 min^-1 (first order rate constant, flow digestion at 2 ml/min) is 27.5 min⁻¹ with N-CBZ-Ala-Leu; 22.4 min⁻¹ in the assay with N-CBZ-Ala-Pro; 24.2 min⁻¹ with N-CBZ-Glu-Tyr; 0.16 min⁻¹ in the assay with N-CBZ-Gly-Pro; 1.48 min⁻¹ in the assay with N-CBZ-Pro-Phe. Moreover, the removal of the carboxy-terminal phenylalanine, HPLC of the digestion products in assay [2] worked out at 96%. In the assay with N-CBZ-Phe-Ala, this substance yielded a rate of digestion at the flow rate of 4 ml/minute of 42 µmol/min. Moreover, the kinetic constant of hydrolysis of the remaining Pro-Leu bond, ninhydrin assays of released amino acids in assay [3] came out at 18.4 min⁻¹. Besides, in assay [4], the first order rate constant of hydrolysis of the Lys-Lys bond, ninhydrin assay of free lysine worked out at 0.16 min⁻¹.
